Data published in IntAct's records for PubMed 23615222.

B1: Thioredoxin H1 (Arabidopsis thaliana (Mouse-ear cress)), P29448 (parent)
chain: MASEEGQVIACHTVETWNEQLQKANESKTLVVVDFTASWCGPCRFIAPFFADLAKKLPNVLFLKVDTDELKSVASDWAIQAMPTFMFLKEGKILDKVVGAKKDELQSTIAKHLA

Variants of: B1
Conditions: with cdpkl_arath CPK21, Q9ZSA2
cdpkl_arath CPK21, Q9ZSA2, sequence (Q9ZSA2 whole entry): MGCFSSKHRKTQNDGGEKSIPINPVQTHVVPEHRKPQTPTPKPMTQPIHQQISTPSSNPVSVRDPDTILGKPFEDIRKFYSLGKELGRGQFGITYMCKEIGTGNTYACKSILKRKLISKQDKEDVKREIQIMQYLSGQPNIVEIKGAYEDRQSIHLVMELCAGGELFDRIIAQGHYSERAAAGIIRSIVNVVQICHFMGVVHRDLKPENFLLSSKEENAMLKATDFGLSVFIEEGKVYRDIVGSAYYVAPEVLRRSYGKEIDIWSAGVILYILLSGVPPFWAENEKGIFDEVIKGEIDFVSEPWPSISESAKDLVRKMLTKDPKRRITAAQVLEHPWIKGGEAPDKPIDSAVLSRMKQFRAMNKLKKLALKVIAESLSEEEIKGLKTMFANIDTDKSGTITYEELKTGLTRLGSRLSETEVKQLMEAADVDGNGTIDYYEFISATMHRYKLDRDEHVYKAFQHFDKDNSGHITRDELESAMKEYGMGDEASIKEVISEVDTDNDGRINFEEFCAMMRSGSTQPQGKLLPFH

For C43S, which “effect of a mutation on the interaction” value is on record?
The value was “increasing interaction”.
